Molecular target: human cytosolic aminopeptidase P, R535A mutant (human) (UniProt Q9NQW7)
Sequence (Q9NQW7 whole entry R535A): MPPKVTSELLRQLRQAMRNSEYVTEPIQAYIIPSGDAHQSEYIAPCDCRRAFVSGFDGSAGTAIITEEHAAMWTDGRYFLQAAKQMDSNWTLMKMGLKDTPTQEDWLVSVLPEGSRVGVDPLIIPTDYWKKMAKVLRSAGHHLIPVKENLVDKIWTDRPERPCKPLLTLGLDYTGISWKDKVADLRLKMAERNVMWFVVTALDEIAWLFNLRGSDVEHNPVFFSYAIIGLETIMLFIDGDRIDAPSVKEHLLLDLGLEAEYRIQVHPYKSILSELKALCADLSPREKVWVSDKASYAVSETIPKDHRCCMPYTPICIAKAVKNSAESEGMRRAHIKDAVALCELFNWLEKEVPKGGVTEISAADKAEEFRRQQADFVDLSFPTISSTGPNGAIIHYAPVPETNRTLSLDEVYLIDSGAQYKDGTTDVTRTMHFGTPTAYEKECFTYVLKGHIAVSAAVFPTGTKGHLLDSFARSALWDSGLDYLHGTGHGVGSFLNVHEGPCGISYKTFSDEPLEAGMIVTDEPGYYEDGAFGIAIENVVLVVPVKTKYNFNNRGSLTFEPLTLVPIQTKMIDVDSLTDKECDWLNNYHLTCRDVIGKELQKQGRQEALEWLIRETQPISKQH

Sequence of bradykinin (P01042 whole entry, looked up): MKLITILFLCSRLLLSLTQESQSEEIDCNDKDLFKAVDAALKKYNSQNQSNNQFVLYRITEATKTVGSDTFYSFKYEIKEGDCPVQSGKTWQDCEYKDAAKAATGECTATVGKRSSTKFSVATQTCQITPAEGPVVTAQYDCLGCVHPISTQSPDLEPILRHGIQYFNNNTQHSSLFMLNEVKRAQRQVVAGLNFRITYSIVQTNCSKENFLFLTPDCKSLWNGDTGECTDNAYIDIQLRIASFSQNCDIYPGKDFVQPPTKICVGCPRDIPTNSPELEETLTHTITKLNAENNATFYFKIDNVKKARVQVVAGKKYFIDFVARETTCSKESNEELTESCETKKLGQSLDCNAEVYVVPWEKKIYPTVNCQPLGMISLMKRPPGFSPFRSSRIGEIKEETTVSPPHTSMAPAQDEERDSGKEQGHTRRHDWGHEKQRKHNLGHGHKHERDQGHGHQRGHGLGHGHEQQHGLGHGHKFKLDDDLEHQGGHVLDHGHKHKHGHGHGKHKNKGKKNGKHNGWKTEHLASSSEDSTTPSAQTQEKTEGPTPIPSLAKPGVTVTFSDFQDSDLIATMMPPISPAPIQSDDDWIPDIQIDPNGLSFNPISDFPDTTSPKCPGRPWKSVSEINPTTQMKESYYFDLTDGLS

Km for bradykinin of the hydrolysis catalysed by R535A hcAMPP (HPLC of des-Arg-bradykinin, 50 mM Tris-HCl pH 7.5, 37°C), with 0, 0.1, 1 and 10 mM guanidine hydrochloride: 350, 327, 144 and 163 μM: 350 μM
Substance: bradykinin (from UniProt P01042 381-389) (peptide)
